From patent US20240261333A1 (published 2024)

Legend:
Assay in all cases: co-IP, anti-FLAG, N-FLAG B3GNT2 cell lysate, mass spectrometry
SRSF1 = target: T1, SRSF1 (UniProt Q07955 2-248)
T1 construct: also called NP_008855.1
Procedure: (§1) Cells were plated in 10-cm cell culture dishes and grown to 60-80% confluency. For each condition, two biological replicates were harvested for co-IP. Cells were washed with PBS and 4 mL of lysis buffer (20 mM HEPES, 1% Triton X-100, 150 mM NaCl, 1 mM EDTA, and 10% glycerol) containing protease inhibitor cocktail was added. Cells were scraped and lysate was incubated at 4° C. under rotary agitation for 1 h. Lysate was centrifuged at 14,000×g for 10 min at 4° C. Supernatant was transferred to a new tube and an aliquot was taken as the input. […] For Western blots, 10 μg/mL Chicken Anti-FLAG (Aves labs ET-DY100) and IgY control (R&D Systems AB-101-C) antibodies were biotinylated (Thermo Fisher Scientific 90407) and added to the respective conditions. Lysates with antibodies were incubated at 4° C. under rotary agitation overnight. For each mL of lysate, 50 μL of Pierce Protein A/G Magnetic Beads (Mass spectrometry; Thermo Fisher Scientific 88803) or Pierce Streptavidin Magnetic Beads (Western blot; Thermo Fisher Scientific 88817) was washed twice with lysis buffer. Lysates with antibodies were added to the beads and incubated at 4° C. under rotary agitation for 4 h. Beads were washed with lysis buffer 3 times and resuspended in lysis buffer for storage.
(§2) Magnetic beads were resuspended in 100 mM Tris pH 7.8, reduced, alkylated and digested with trypsin at 37° ° C. overnight. This solution was subjected to solid phase extraction to concentrate the peptides and remove unwanted reagents followed by injection onto a Shimadzu HPLC with fraction collector. Eight fractions were collected and after concentration were injected on a Waters NanoAcquity HPLC equipped with a self-packed Aeris 3 μm C18 analytical column 0.075 mm by 20 cm, (Phenomenex). Peptides were eluted using standard reverse-phase gradients. The effluent from the column was analyzed using a Thermo Orbitrap Elite mass spectrometer (nanospray configuration) operated in a data dependent manner for 54 minutes. The resulting fragmentation spectra were correlated against the known database using Proteome Discover 1.4 (Thermo Fisher Scientific).

RPS18 = RPS18 (UniProt P62269 2-152)
Procedure: as §1, §2

ARG1 = target: T2, ARG1 (UniProt P05089 1-322)
T2 construct: also called NP_000036.2 (+1)
T2 sequence (looked up): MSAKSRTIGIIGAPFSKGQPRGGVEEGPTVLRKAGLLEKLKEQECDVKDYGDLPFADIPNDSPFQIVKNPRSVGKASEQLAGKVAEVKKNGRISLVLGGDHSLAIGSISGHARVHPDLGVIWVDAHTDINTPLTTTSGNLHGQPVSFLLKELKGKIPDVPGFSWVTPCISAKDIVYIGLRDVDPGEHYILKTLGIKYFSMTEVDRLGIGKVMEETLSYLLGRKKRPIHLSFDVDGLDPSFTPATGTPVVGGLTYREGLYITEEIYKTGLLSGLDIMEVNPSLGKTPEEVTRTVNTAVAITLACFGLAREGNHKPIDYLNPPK
Procedure: as §1, §2

HNRNPU = target: T3, HNRNPU (UniProt Q00839 2-825)
T3 construct: also called NP_114032.2
Procedure: as §1, §2

RPS2 = RPS2 (UniProt P15880 2-293)
Procedure: as §1, §2

CFL1 = target: T4, CFL1 (UniProt P23528 2-166)
T4 construct: also called NP_005498.1
Procedure: as §1, §2

SRSF3 = target: T5, SRSF3 (UniProt P84103 1-164)
T5 construct: also called NP_003008.1
T5 sequence (looked up): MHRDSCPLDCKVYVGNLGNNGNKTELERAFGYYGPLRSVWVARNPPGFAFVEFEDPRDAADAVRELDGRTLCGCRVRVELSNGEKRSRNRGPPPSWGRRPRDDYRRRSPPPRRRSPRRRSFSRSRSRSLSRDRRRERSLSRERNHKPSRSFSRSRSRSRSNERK
Procedure: as §1, §2

TNKS1BP1 = target: T6, TNKS1BP1 (UniProt Q9C0C2 1-1729)
T6 construct: also called NP_203754.2
Procedure: as §1, §2

T6 sequence (Q9C0C2 whole entry): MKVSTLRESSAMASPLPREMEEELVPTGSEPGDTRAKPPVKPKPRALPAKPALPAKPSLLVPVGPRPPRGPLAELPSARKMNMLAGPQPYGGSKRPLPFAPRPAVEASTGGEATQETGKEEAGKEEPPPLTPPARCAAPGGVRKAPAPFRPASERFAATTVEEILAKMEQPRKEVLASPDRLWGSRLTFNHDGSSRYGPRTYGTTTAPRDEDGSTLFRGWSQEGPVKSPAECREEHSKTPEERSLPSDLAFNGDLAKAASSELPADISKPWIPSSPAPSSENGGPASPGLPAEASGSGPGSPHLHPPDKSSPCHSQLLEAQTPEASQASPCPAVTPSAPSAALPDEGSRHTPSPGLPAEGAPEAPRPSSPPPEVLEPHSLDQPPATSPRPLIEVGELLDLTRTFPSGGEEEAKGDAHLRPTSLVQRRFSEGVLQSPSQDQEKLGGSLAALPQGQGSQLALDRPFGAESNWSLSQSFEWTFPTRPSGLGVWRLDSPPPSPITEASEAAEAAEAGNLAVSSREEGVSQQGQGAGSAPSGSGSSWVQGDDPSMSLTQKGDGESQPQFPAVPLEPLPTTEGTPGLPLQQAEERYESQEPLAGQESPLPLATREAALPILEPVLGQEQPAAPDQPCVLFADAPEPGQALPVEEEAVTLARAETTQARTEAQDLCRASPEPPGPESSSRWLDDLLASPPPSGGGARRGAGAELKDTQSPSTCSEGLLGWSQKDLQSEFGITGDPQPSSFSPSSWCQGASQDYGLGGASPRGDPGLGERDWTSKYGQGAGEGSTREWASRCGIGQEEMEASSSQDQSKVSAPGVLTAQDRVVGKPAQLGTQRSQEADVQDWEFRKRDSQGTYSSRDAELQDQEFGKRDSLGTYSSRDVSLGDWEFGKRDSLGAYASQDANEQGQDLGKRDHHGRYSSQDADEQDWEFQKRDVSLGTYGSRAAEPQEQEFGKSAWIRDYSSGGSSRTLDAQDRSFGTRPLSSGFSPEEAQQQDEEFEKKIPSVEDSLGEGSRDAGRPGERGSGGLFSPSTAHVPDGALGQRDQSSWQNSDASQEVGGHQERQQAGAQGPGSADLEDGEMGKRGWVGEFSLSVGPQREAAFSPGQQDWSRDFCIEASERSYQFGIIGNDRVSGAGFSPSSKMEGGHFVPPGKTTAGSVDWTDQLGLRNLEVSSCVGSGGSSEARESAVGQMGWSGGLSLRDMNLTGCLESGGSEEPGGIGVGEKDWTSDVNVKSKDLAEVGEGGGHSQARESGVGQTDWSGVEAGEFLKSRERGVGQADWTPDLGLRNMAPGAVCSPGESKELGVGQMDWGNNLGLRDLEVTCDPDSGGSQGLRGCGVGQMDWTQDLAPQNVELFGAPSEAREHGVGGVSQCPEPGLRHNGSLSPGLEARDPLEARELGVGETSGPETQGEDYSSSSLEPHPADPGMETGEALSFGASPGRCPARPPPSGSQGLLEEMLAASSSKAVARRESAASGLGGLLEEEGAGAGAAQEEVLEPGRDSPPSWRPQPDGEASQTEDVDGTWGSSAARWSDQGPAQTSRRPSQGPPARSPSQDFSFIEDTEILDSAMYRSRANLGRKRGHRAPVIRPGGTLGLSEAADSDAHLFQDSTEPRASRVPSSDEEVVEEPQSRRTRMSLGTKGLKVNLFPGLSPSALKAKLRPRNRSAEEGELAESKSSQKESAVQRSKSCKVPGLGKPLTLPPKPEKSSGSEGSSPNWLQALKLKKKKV
T4 sequence (P23528 2-166 limits assumed): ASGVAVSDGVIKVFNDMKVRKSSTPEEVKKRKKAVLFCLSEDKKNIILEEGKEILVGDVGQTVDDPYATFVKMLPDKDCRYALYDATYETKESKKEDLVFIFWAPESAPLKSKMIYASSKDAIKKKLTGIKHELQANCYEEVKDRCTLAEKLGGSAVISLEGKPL
T1 sequence (Q07955 2-248 limits assumed): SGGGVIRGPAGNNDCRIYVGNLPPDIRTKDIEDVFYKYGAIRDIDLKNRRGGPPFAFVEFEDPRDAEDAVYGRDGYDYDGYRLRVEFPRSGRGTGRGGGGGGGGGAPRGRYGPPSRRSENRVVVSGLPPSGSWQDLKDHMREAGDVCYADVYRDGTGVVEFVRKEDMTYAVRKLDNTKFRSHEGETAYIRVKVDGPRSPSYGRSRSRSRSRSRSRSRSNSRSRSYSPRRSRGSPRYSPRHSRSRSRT
T3 sequence (Q00839 2-825 limits assumed): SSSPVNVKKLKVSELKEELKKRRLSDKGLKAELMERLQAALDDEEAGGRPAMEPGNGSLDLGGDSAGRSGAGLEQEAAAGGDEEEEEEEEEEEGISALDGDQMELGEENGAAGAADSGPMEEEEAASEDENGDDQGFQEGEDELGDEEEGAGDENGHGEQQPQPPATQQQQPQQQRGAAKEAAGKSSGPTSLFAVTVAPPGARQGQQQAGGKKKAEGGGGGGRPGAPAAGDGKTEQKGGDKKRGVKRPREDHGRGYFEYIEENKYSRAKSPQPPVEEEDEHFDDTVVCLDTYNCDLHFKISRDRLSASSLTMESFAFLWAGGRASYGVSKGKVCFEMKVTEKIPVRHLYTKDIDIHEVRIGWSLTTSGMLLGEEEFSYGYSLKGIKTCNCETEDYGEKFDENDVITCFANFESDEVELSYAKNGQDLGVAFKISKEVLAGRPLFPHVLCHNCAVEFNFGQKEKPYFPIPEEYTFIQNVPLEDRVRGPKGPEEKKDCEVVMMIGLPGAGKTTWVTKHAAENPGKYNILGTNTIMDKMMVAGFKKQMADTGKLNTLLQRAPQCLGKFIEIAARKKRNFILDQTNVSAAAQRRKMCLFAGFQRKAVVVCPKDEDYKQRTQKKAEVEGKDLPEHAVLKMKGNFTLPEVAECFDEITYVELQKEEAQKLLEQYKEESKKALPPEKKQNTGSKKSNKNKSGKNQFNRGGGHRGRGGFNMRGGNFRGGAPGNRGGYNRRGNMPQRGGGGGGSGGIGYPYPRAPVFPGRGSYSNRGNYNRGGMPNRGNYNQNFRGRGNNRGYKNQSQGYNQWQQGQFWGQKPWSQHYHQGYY

co-IP mass spectrometry count (SRSF1): 4
co-IP mass spectrometry count (RPS18): 15
co-IP mass spectrometry count (ARG1): 8
co-IP mass spectrometry count (HNRNPU): 0
co-IP mass spectrometry count (RPS2): 13
co-IP mass spectrometry count (CFL1): 5
co-IP mass spectrometry count (SRSF3): 6
co-IP mass spectrometry count (TNKS1BP1): 2
B1: N-terminal FLAG tagged B3GNT2 (enzyme, human, UniProt Q9NY97 1-397, looked up)
chain: MSVGRRRIKLLGILMMANVFIYFIMEVSKSSSQEKNGKGEVIIPKEKFWKISTPPEAYWNREQEKLNRQYNPILSMLTNQTGEAGRLSNISHLNYCEPDLRVTSVVTGFNNLPDRFKDFLLYLRCRNYSLLIDQPDKCAKKPFLLLAIKSLTPHFARRQAIRESWGQESNAGNQTVVRVFLLGQTPPEDNHPDLSDMLKFESEKHQDILMWNYRDTFFNLSLKEVLFLRWVSTSCPDTEFVFKGDDDVFVNTHHILNYLNSLSKTKAKDLFIGDVIHNAGPHRDKKLKYYIPEVVYSGLYPPYAGGGGFLYSGHLALRLYHITDQVHLYPIDDVYTGMCLQKLGLVPEKHKGFRTFDIEEKNKNNICSYVDLMLVHSRKPQEMIDIWSQLQSAHLKC
notes: Bait of the co-IP; pulled down with mouse anti-FLAG from cell lysate; also called N-FLAG B3GNT2; N-term FLAG; not shown: FLAG tag at the N-terminus
